The text below walks through data of PMC6377682, “ASPP proteins discriminate between PP1 catalytic subunits through their SH3 domain and the PP1 C-tail” (Nature Communications, 2019).

The chains are these.
B3: human iASPP^621-828 (domain or fragment, UniProt Q8WUF5 621-828, looked up)
chain: RRARLNPLVLLLDAALTGELEVVQQAVKEMNDPSQPNEEGITALHNAICGANYSIVDFLITAGANVNSPDSHGWTPLHCAASCNDTVICMALVQHGAAIFATTLSDGATAFEKCDPYREGYADCATYLADVEQSMGLMNSGAVYALWDYSAEFGDELSFREGESVTVLRRDGPEETDWWWAALHGQEGYVPRNYFGLFPRVKPQRSKV
notes: the protein preparation paragraph prints iASPP^608-828 in pGEX-6P2
B5: human ASPP2^920-1120 (domain or fragment, UniProt Q13625 920-1120, looked up)
chain: MRVKFNPLALLLDSSLEGEFDLVQRIIYEVDDPSLPNDEGITALHNAVCAGHTEIVKFLVQFGVNVNAADSDGWTPLHCAASCNNVQVCKFLVESGAAVFAMTYSDMQTAADKCEEMEEGYTQCSQFLYGVQEKMGIMNKGVIYALWDYEPQNDDELPMKEGDCMTIIHREDEDEIEWWWARLNDKEGYVPRNLLGLYPRI
notes: ASPP2, human, residues 920-1120 (RVxF motif, ankyrin repeats, SH3 domain); pGEX-6P2 construct; source: E. coli Rosetta (DE3) pLysS, purified (glutathione-Sepharose, 3C cleavage, SEC); for the crystal co-expressed with PP1α^7-330 in E. coli BL21 (DE3)
B6: ASPP2^D1091G/E1092P (domain or fragment, human, UniProt Q13625 920-1120, looked up)
chain: MRVKFNPLALLLDSSLEGEFDLVQRIIYEVDDPSLPNDEGITALHNAVCAGHTEIVKFLVQFGVNVNAADSDGWTPLHCAASCNNVQVCKFLVESGAAVFAMTYSDMQTAADKCEEMEEGYTQCSQFLYGVQEKMGIMNKGVIYALWDYEPQNDDELPMKEGDCMTIIHREGPDEIEWWWARLNDKEGYVPRNLLGLYPRI
notes: ASPP2, human, residues 920-1120 with n-Src loop mutations; also called double mutant mimicking the human iASPP n-Src loop

Conditions in all cases: both partners purified
For test [1], the target named is B5. Description: ITC; PP1 peptides (350–550 μM) titrated into ASPP2^920-1120 (40 μM), 20 °C; 25 mM Tris pH 8.0, 200 mM NaCl, 0.5 mM TCEP; single binding site model; ASPP2 mutants and iASPP in place of ASPP2 for Fig. 6e. For orientation: ITC needs no label: the signal is the heat of the interaction.
For test [2], the target named is T1, human PP1α^7-330 (human, UniProt P62136 7-330).
T1 construct: PP1 catalytic subunit alpha, human, residues 7-330; His6 tag kept for ITC and BLI (captured on Ni-NTA sensors); also called full-length PP1α (as the text calls it); source: for the crystal co-expressed with ASPP2^920-1120 in E. coli BL21 (DE3), purified (Ni-NTA, glutathione-Sepharose, SEC)
Kind of test: BLI; HIS tagged PP1α, PP1β or PP1γ1 (50 μg/ml) immobilised on Ni-NTA biosensors, ASPP in solution in kinetics buffer, 25 °C, 1000 rpm; global fit 1:1 model; apparent KD. On the technique in general: Biolayer interferometry detects binding as a change in optical thickness at a sensor tip.

Test [3] has as its target T2, human PP1γ1^7-323 (human, UniProt P36873 7-323).
T2 construct: source: bacterial culture with GroEL/GroES chaperone; purification for BLI not described
The test is described as above.

The target of test [4] is T3, human PP1β^6-327 (human, UniProt P62140 6-327).
T3 construct: PP1 catalytic subunit beta, human, residues 6-327; source: bacterial culture with GroEL/GroES chaperone; purification for BLI not described
Described as above.

The target of test [5] is T1, human PP1α^7-330. Description: ITC; ASPP2 (25 μM) titrated into His6-tagged PP1 (3–4 μM), 25 °C; 20 mM Tris pH 8, 500 mM NaCl, 0.5 mM TCEP, 1 mM MnCl2.
The target in test [6] is B3. Kind of test: ITC; PP1 peptides (350–550 μM) titrated into ASPP2^920-1120 (40 μM), 20 °C; 25 mM Tris pH 8.0, 200 mM NaCl, 0.5 mM TCEP; single binding site model; ASPP2 mutants and iASPP in place of ASPP2 for Fig. 6e.
Test [7] deals with B6. The description is as above.

B1: PP1α^317-323 core PPII motif peptide (peptide)
peptide: RPITPPR
notes: source: synthetic peptide (LRI peptide synthesis core facility)
For B1, in test [1], the Kd amounted to 5650 nM.

B2: PP1γ1^298-323 C-tail peptide (peptide, UniProt P36873 298-323, looked up)
peptide: PAEKKKPNATRPVTPPRGMITKQAKK
notes: as for B1
For B2, the “fold lower affinity than PP1α^301-330 (143 nM)” value in test [1] amounted to 5 fold.
In the case of B3, in test [2], the Kd was 2.6 nM, the “fold lower koff than ASPP2 on PP1α” value was determined as 110 fold, the “fold lower kon than ASPP2 on PP1α” value came out at 7 fold and the “half-life of the complex” value was determined as 58 min. Further, in test [3], the “fold preference for PP1α and PP1β over PP1γ1” value is 2 fold.

B4: PP1γ2^297-324 C-tail peptide (peptide, UniProt P36873-2 297-324, looked up)
peptide: KPAEKKKPNATRPVTPPRVASGLNPSIQ
notes: PP1 catalytic subunit gamma, testis-specific isoform γ2, human, residues 297-324; source: synthetic peptide (LRI peptide synthesis core facility)
As to B4, the “fold lower affinity than PP1α^301-330 (143 nM)” value in test [1] is 15 fold.
In the case of B5, the “fold lower affinity than for PP1α (13.6 nM)” value in test [4] amounted to 13 fold; in test [3], 14 fold. The Kd in test [2] was found to be 13.6 nM; in test [5] it was 6.1 nM. In addition, in test [2], the “half-life of the complex” value stood at 0.517 min.
Consider B6, for which the binding result in test [2] is given as “binds”.

B7: ASPP2^D1093S (domain or fragment, human, UniProt Q13625 920-1120, looked up)
chain: MRVKFNPLALLLDSSLEGEFDLVQRIIYEVDDPSLPNDEGITALHNAVCAGHTEIVKFLVQFGVNVNAADSDGWTPLHCAASCNNVQVCKFLVESGAAVFAMTYSDMQTAADKCEEMEEGYTQCSQFLYGVQEKMGIMNKGVIYALWDYEPQNDDELPMKEGDCMTIIHREDESEIEWWWARLNDKEGYVPRNLLGLYPRI
notes: ASPP2, human, residues 920-1120 with an n-Src loop mutation; also called single ASPP2 mutant mimicking the ASPP1 n-Src loop
Turning to B7, the binding result in test [2] is reported as “binds”.

B8: ASPP2^D1091K/E1092V/E1094K (recombinant fragment) (domain or fragment, human, UniProt Q13625 920-1120, looked up)
chain: MRVKFNPLALLLDSSLEGEFDLVQRIIYEVDDPSLPNDEGITALHNAVCAGHTEIVKFLVQFGVNVNAADSDGWTPLHCAASCNNVQVCKFLVESGAAVFAMTYSDMQTAADKCEEMEEGYTQCSQFLYGVQEKMGIMNKGVIYALWDYEPQNDDELPMKEGDCMTIIHREKVDKIEWWWARLNDKEGYVPRNLLGLYPRI
notes: ASPP2, human, residues 920-1120 with n-Src loop mutations; also called ASPP2^KVK; triple mutant mimicking the C. elegans iASPP n-Src loop
With B8, in test [2], the Kd was found to be 8200 nM.

B9: ASPP2^E1090K/D1093S (domain or fragment, human, UniProt Q13625 920-1120, looked up)
chain: MRVKFNPLALLLDSSLEGEFDLVQRIIYEVDDPSLPNDEGITALHNAVCAGHTEIVKFLVQFGVNVNAADSDGWTPLHCAASCNNVQVCKFLVESGAAVFAMTYSDMQTAADKCEEMEEGYTQCSQFLYGVQEKMGIMNKGVIYALWDYEPQNDDELPMKEGDCMTIIHRKDESEIEWWWARLNDKEGYVPRNLLGLYPRI
notes: ASPP2, human, residues 920-1120 with n-Src loop mutations; also called double ASPP2 mutant mimicking the ASPP1 n-Src loop
On to B9, for which, in test [2], the binding result is reported as “binds”.

B10: human ASPP1^882-1090 (domain or fragment, UniProt Q96KQ4 882-1090, looked up)
chain: LRVRFNPLALLLDASLEGEFDLVQRIIYEVEDPSKPNDEGITPLHNAVCAGHHHIVKFLLDFGVNVNAADSDGWTPLHCAASCNSVHLCKQLVESGAAIFASTISDIETAADKCEEMEEGYIQCSQFLYGVQEKLGVMNKGVAYALWDYEAQNSDELSFHEGDALTILRRKDESETEWWWARLGDREGYVPKNLLGLYPRIKPRQRTLA
notes: ASPP1, human, residues 882-1090; source: pGEX-6P2 construct; expression and purification described only for ASPP2
For the molecule B10, the binding result in test [4], in test [2] and in test [3] was “binds” throughout.

B11: ASPP1^K1052E/S1055D (domain or fragment, human, UniProt Q96KQ4 882-1090, looked up)
chain: LRVRFNPLALLLDASLEGEFDLVQRIIYEVEDPSKPNDEGITPLHNAVCAGHHHIVKFLLDFGVNVNAADSDGWTPLHCAASCNSVHLCKQLVESGAAIFASTISDIETAADKCEEMEEGYIQCSQFLYGVQEKLGVMNKGVAYALWDYEAQNSDELSFHEGDALTILRREDEDETEWWWARLGDREGYVPKNLLGLYPRIKPRQRTLA
notes: ASPP1, human, residues 882-1090 with n-Src loop residues 1 and 4 changed to the ASPP2 residues
As to B11, the binding result in test [2] is reported as “binds”.

B12: PP1α^317-330 peptide (peptide)
peptide: RPITPPRNSAKAKK
notes: PP1α, human, residues 324-330; source: synthetic peptide (LRI peptide synthesis core facility)
Molecule B12 came in with a Kd in test [1] of 270 nM.

B13: PP1α^301-330 C-tail peptide (peptide, UniProt P62136 301-330, looked up)
peptide: KNKGKYGQFSGLNPGGRPITPPRNSAKAKK
notes: also called PP1α C-tail; source: synthetic peptide (LRI peptide synthesis core facility)
On to B13, for which the values for the Kd in test [6] and in test [1] were 395 nM and 143 nM, respectively. In addition, the binding result in test [7] was “binds”.

B14: PP1α^301-330 K329A peptide (peptide, UniProt P62136 301-330, looked up)
peptide: KNKGKYGQFSGLNPGGRPITPPRNSAKAAK
notes: as for B1
On to B14, for which, in test [1], the binding result is reported as “binds”.

B15: PP1α^301-330 K327A peptide (peptide, UniProt P62136 301-330, looked up)
peptide: KNKGKYGQFSGLNPGGRPITPPRNSAAAKK
notes: also called PP1α^K327 to alanine; source: synthetic peptide (LRI peptide synthesis core facility)
Consider B15, for which, in test [1], the “fold decrease in affinity against PP1α^301-330” value turned out to be 4 fold.

B16: PP1α^301-330 3KA peptide (peptide, UniProt P62136 301-330, looked up)
peptide: KNKGKYGQFSGLNPGGRPITPPRNSAAAAA
notes: also called PP1α 3KA; source: synthetic peptide (LRI peptide synthesis core facility)
With B16, the Kd came to 690 nM in test [6] and 1900 nM in test [1].

B17: PP1α^301-330 K330A peptide (peptide, UniProt P62136 301-330, looked up)
peptide: KNKGKYGQFSGLNPGGRPITPPRNSAKAKA
notes: as for B1
On to B17, for which the binding result in test [1] is recorded as “binds”.

B18: PP1β^297-327 C-tail peptide (peptide, UniProt P62140 297-327, looked up)
peptide: PSEKKAKYQYGGLNSGRPVTPPRTANPPKKR
notes: PP1 catalytic subunit beta, human, residues 297-327; source: synthetic peptide (LRI peptide synthesis core facility)
Turning to B18, the “fold lower affinity than PP1α^301-330 (143 nM)” value in test [1] was determined as 7 fold.
